Measured values from patent publication US20230091175A1.

What was measured:
[1] = biological target: human IL 12 protein (Recombinant His, C-terminus) (aa23-328) (LS-G134297-50: LSBio, Inc.) (human) (UniProt P29460); assay: SPR (Biacore 8K); affinity ratio with the original antibody as 1.0
[2] = biological target: human IL 12 protein (Recombinant His, C-terminus) (aa23-328) (LS-G134297-50: LSBio, Inc.) (human) (UniProt P29460); assay: SPR (Biacore 8K), antigen immobilized on CM4 chip, antibody as analyte

human IL 12 protein (Recombinant His, C-terminus) (aa23-328) (LS-G134297-50: LSBio, Inc.) (human), sequence (P29460 23-328, form in doubt): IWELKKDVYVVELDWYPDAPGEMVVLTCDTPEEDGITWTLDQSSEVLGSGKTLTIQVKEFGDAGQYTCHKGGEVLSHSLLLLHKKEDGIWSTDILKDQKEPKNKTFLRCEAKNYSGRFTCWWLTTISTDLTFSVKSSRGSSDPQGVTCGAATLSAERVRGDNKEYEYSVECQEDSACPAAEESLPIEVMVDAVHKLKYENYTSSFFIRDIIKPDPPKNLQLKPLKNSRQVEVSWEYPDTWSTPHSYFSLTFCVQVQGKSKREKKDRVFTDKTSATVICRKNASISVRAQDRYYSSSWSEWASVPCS

B1: mouse anti-human IL-12 antibody (clone 22-4), original (unmodified) (Fab, V domains shown, not shown: a dimerising Fc or GST)
VH: EVQLQESGPSLVKPSQTLSLTCSVTGDSITSGYWNWIRKFPGNKLEYMGYISYSGSTYYNPSLKSRISITRDTSKNQNYLQLNSVTTEDTATYYCARRDTTVVVPYYFDYWGQGTTLTVSS
VL: DIVMTQSHKFMSTSVGDRVSITCKASQDVGTAVAWYQQKPGQSPKLLIYWASTRHTGVPGRFTGSGSGTDFTLTINNVQSEDLADYFCQQYSSYPLTFGAGTKLELKR
In the case of B1, the KD ratio [1] is reported as 1 and the Kd [2] is reported as 10.3 nM.

B2: R3 variant of anti-IL-12 antibody (clone 22-4) (Fab, V domains shown, not shown: a dimerising Fc or GST)
VH: EVQLQESGPSLVKPSQTLSLTCSVTGDSITSGYWNWIRKFPGNKLEYMGYISYSGSTYYNPSLKSRISITRDTSKNQNYLQLNSVTTEDTATYYCARRDTTVVVPYYFDYWGQGTTLTVSS
VL: DIVMTQSHKFMSTSVGDRVSITCKASQDVGTAVAWYQQKPGQSPKLLIYWASTRHTGVPGRFRGRGRGTDFTLTINNVQSEDLADYFCQQYSSYPLTFGAGTKLELKR
B2 showed a KD ratio [1] of 20.8 and a Kd [2] of 0.497 nM.

B3: R4 variant of anti-IL-12 antibody (clone 22-4) (Fab, V domains shown, not shown: a dimerising Fc or GST)
VH: EVQLQESGPSLVKPSQTLSLTCSVTGDSITSGYWNWIRKFPGNKLEYMGYISYSGSTYYNPSLKSRISITRDTSKNQNYLQLNSVTTEDTATYYCARRDTTVVVPYYFDYWGQGTTLTVSS
VL: DIVMTQSHKFMSTSVGDRVSITCKASQDVGTAVAWYQQKPGQSPKLLIYWASTRHTGVPGRFRGRGRGTRFTLTINNVQSEDLADYFCQQYSSYPLTFGAGTKLELKR
Work on B3 yielded a KD ratio [1] of 42.2 and a Kd [2] of 0.245 nM.
